In the experiment the target is T1, rat Y4 receptor (rat), Q63447.
T1 chain: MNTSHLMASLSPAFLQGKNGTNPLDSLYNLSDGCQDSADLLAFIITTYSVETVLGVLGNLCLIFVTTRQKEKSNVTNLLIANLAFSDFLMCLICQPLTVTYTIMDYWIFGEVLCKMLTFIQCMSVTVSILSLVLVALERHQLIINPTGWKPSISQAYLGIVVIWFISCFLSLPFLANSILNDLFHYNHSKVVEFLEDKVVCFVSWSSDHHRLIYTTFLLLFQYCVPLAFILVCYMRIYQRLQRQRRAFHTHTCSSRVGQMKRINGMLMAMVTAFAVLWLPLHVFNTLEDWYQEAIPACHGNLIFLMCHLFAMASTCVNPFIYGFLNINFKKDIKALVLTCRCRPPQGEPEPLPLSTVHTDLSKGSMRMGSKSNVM
As to the kind of experiment: 125I-PYY displacement, COS-7 membranes. Particulars: remark: other sources report otherwise.

What is called Ki is the dissociation constant of the complex between target and ligand, obtained from inhibition or displacement. The low end stands for higher affinity, the high end for lower affinity.

Consider PAEDLARYYSALRHYINLITRQRY (peptide, UniProt P01304 22-45, looked up) [porcine NPY13-36, P01304 22-45], for which the Ki stood at 140 nM.

Values taken from US6713265.
